In publication PMC9482650, “Quantitative fragmentomics allow affinity mapping of interactomes” (Nature Communications, 2022):

T1: LIN7A, O14910
T1 sequence (O14910 103-200, limits assumed, looked up): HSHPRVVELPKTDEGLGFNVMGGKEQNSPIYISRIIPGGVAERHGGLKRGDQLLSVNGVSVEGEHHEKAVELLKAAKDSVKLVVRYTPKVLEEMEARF

T2: ARHGAP21, Q5T5U3
T2 sequence (Q5T5U3 45-169, limits assumed, looked up): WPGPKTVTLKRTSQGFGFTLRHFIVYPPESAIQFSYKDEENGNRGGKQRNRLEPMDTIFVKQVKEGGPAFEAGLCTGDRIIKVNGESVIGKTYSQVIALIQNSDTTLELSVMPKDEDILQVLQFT

T3: PCLO, Q9Y6V0
T3 sequence (Q9Y6V0 4491-4600, limits assumed, looked up): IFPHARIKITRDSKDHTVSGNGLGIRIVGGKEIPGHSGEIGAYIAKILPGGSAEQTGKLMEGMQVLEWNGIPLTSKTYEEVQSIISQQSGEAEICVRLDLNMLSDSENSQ

T4: MPP7, Q5T2T1
T4 sequence (Q5T2T1 134-230, limits assumed, looked up): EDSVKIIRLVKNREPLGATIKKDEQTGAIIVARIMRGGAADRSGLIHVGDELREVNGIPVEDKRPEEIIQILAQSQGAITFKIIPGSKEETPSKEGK

T5: MPP6, Q9NZW5
T5 sequence (Q9NZW5 125-219, limits assumed, looked up): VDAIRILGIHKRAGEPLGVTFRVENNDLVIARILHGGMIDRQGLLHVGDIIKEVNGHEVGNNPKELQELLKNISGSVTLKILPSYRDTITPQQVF

T6: GRIP1_5, Q9Y3R0
T6 sequence (Q9Y3R0 568-668, limits assumed, looked up): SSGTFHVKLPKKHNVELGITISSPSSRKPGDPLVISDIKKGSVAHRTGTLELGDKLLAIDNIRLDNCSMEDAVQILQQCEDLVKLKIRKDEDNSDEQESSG

T7: SYNJ2BP, P57105
T7 sequence (P57105 8-110, limits assumed, looked up): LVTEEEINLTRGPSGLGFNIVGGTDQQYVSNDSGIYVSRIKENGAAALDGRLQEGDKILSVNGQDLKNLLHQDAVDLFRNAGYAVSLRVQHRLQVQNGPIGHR

T8: PDZRN3_1, Q9UPQ7
T8 sequence (Q9UPQ7 244-349, limits assumed, looked up): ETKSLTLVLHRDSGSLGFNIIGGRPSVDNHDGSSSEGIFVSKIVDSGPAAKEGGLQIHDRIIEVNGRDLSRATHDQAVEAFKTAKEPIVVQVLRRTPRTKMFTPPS

T9: PTPN13_1, Q12923
T9 sequence (Q12923 1088-1188, limits assumed, looked up): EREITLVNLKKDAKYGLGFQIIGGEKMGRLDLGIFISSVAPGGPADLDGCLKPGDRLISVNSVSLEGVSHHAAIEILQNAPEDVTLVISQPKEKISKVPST

T10: FRMPD1, Q5SYB0
T10 sequence (Q5SYB0 52-145, limits assumed, looked up): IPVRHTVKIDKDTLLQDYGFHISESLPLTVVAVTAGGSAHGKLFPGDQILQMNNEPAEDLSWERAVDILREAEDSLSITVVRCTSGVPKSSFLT

T11: GRIP1_7, Q9Y3R0
T11 sequence (Q9Y3R0 999-1096, limits assumed, looked up): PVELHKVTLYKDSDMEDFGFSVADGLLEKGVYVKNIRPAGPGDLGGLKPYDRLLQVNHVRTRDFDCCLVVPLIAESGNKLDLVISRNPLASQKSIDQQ


How the values were obtained:
Assay in all cases: holdup assay
Set-up in all cases: key: below the threshold = too weak to quantify, mostly under pKd 3.1 to 4
Conditions in all cases: plain residues with an end cap or a label only (N-terminal biotin on a linker: ado-ado)
[1] = target: NHERF4_2, Q86UT5
[2] = target: T1, LIN7A, O14910
[3] = target: GRIP2_3, Q9C0E4
[4] = target: GRID2IP_1, A4D2P6
[5] = target: T2, ARHGAP21, Q5T5U3
[6] = target: FRMPD4, Q14CM0
[7] = target: T3, PCLO, Q9Y6V0
[8] = target: T4, MPP7, Q5T2T1
[9] = target: MAGI1_2, Q96QZ7
[10] = target: T5, MPP6, Q9NZW5
[11] = target: MAST2, Q6P0Q8
[12] = target: Inadl_4, Q8NI35
[13] = target: T6, GRIP1_5, Q9Y3R0
[14] = target: T7, SYNJ2BP, P57105
[15] = target: T8, PDZRN3_1, Q9UPQ7
[16] = target: MAGI2_5, Q86UL8
[17] = target: T9, PTPN13_1, Q12923
[18] = target: SCRIB_2, Q14160
[19] = target: Inadl_3, Q8NI35
[20] = target: MAGI2_3, Q86UL8
[21] = target: MAGI1_1, Q96QZ7
[22] = target: T10, FRMPD1, Q5SYB0
[23] = target: HTRA1, Q92743
[24] = target: GRASP, Q7Z6J2
[25] = target: DLG4_1, P78352
[26] = target: GRIP2_6, Q9C0E4
[27] = target: T11, GRIP1_7, Q9Y3R0

MAGI1_1, Q96QZ7, sequence (Q96QZ7 1-106): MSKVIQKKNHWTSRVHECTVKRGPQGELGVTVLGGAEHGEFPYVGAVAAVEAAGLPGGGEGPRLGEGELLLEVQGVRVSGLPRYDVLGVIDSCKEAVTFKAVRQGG
SCRIB_2, Q14160, sequence (Q14160 857-960): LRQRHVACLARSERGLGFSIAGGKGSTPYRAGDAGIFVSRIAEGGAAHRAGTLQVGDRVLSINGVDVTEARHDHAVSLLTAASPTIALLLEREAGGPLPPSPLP
GRASP, Q7Z6J2, sequence (Q7Z6J2 96-193): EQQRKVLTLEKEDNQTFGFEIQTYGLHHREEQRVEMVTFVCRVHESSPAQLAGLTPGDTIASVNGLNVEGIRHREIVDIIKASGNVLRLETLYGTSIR
MAGI2_3, Q86UL8, sequence (Q86UL8 600-682): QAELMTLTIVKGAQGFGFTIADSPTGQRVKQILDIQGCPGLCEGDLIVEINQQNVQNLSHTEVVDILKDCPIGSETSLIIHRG
FRMPD4, Q14CM0, sequence (Q14CM0 67-160): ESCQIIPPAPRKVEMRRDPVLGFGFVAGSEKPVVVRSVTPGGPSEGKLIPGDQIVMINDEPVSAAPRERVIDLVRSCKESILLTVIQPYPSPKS
HTRA1, Q92743, sequence (Q92743 360-477): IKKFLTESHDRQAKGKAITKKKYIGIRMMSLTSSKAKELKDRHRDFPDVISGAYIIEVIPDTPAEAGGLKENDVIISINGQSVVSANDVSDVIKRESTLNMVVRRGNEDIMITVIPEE
GRIP2_3, Q9C0E4, sequence (Q9C0E4 238-339): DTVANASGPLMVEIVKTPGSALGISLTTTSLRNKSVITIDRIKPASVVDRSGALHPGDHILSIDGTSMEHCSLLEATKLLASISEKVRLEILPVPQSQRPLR
Inadl_4, Q8NI35, sequence (Q8NI35 547-651): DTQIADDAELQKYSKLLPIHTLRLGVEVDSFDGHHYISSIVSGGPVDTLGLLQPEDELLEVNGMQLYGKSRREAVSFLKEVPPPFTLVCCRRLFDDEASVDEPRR
GRIP2_6, Q9C0E4, sequence (Q9C0E4 648-740): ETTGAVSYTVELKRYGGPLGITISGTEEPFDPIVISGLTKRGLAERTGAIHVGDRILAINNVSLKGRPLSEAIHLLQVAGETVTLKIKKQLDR
Inadl_3, Q8NI35, sequence (Q8NI35 359-469): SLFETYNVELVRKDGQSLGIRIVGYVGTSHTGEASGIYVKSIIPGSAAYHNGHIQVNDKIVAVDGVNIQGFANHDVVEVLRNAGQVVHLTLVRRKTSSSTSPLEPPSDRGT
DLG4_1, P78352, sequence (P78352 62-152): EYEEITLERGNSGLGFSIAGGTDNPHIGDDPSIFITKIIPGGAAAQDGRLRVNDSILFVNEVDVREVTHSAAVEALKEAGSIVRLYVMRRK
MAGI2_5, Q86UL8, sequence (Q86UL8 915-1017): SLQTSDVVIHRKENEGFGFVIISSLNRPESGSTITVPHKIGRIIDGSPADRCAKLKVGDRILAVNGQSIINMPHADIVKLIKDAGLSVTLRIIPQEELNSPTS
MAST2, Q6P0Q8, sequence (Q6P0Q8 1099-1202): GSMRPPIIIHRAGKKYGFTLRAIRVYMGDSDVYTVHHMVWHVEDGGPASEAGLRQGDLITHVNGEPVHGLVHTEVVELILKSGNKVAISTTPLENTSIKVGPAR
GRID2IP_1, A4D2P6, sequence (A4D2P6 1-87): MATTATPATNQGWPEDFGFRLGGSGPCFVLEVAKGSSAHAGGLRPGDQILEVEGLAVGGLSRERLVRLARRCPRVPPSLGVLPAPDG
NHERF4_2, Q86UT5, sequence (Q86UT5 220-308): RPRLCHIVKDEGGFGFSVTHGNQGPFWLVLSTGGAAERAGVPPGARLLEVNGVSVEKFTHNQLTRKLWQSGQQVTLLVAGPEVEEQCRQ
MAGI1_2, Q96QZ7, sequence (Q96QZ7 456-580): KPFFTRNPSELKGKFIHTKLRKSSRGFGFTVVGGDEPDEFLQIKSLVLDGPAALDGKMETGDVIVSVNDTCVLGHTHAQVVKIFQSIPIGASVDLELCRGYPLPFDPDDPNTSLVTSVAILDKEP

| Binder | pKd [1] | pKd [2] | pKd [3] | pKd [4] | pKd [5] | pKd [6] | pKd [7] | pKd [8] | pKd [9] | pKd [10] | pKd [11] | pKd [12] | pKd [13] | pKd [14] | pKd [15] | pKd [16] | pKd [17] | pKd [18] | pKd [19] | pKd [20] | further results |
| --- | --- | --- | --- | --- | --- | --- | --- | --- | --- | --- | --- | --- | --- | --- | --- | --- | --- | --- | --- | --- | --- |
| SKSNFGSEPL [KIF17, Q9P2E2] | below the threshold | below the threshold | below the threshold | below the threshold | 3.56 | below the threshold | below the threshold | below the threshold | below the threshold | 3.66 | 3.93 | below the threshold | below the threshold | below the threshold | below the threshold | below the threshold | below the threshold | below the threshold | below the threshold | below the threshold | pKd [21]: below the threshold; pKd [22]: below the threshold; pKd [23]: below the threshold; pKd [24]: below the threshold; pKd [25]: below the threshold; pKd [26]: below the threshold; pKd [27]: below the threshold |
| YYKRPVQEWV [MMP24, Q9Y5R2] | below the threshold | below the threshold | 3.48 | below the threshold | below the threshold | below the threshold | below the threshold | below the threshold | below the threshold | below the threshold | below the threshold | below the threshold | below the threshold | 3.91 | below the threshold | below the threshold | below the threshold | below the threshold | below the threshold | below the threshold | pKd [21]: 3.48; pKd [22]: below the threshold; pKd [23]: 4.5; pKd [24]: 3.88; pKd [25]: below the threshold; pKd [26]: below the threshold; pKd [27]: 3.71 |

Continued, in another order:

| pKd [1] | pKd [2] | pKd [3] | pKd [4] | pKd [5] | pKd [6] | pKd [7] | pKd [8] | pKd [9] | pKd [10] | pKd [11] | pKd [12] | pKd [13] | pKd [14] | pKd [15] | pKd [16] | pKd [17] | pKd [18] | pKd [19] | pKd [20] | Binder | further results |
| --- | --- | --- | --- | --- | --- | --- | --- | --- | --- | --- | --- | --- | --- | --- | --- | --- | --- | --- | --- | --- | --- |
| below the threshold | below the threshold | below the threshold | below the threshold | below the threshold | below the threshold | below the threshold | below the threshold | 5.51 | below the threshold | 5.3 | below the threshold | below the threshold | 4.95 | 3.71 | below the threshold | below the threshold | below the threshold | below the threshold | 4.25 | SAKVRTVTSV [RASL11B, Q9BPW5] | pKd [21]: 3.52; pKd [22]: below the threshold; pKd [23]: 3.95; pKd [24]: 4.54; pKd [25]: 4.65; pKd [26]: 3.63; pKd [27]: below the threshold |
| below the threshold | below the threshold | below the threshold | below the threshold | below the threshold | 3.66 | below the threshold | below the threshold | below the threshold | below the threshold | 4.7 | below the threshold | below the threshold | below the threshold | below the threshold | below the threshold | below the threshold | below the threshold | below the threshold | below the threshold | DTTVPESEDL [MYOZ2, Q9NPC6] | pKd [21]: below the threshold; pKd [22]: below the threshold; pKd [23]: below the threshold; pKd [24]: below the threshold; pKd [25]: below the threshold; pKd [26]: below the threshold; pKd [27]: below the threshold |
| 3.59 | below the threshold | below the threshold | below the threshold | below the threshold | below the threshold | below the threshold | below the threshold | 3.53 | 3.92 | 5.28 | below the threshold | below the threshold | 4.75 | 3.5 | 4.47 | below the threshold | 4.28 | 4.11 | 3.94 | PDGQCTVTEV [RNF146, Q9NTX7] | pKd [21]: below the threshold; pKd [22]: below the threshold; pKd [23]: 5.05; pKd [24]: 4.7; pKd [25]: 4.6; pKd [26]: below the threshold; pKd [27]: 3.51 |
